One data set addresses EcoRI (Gln 111) (UniProt P00642 P00642:2-277, Gln111 (cleavage-deficient; parent residue not stated)). Put plainly: FP; no enhancement of FP change without recognition site; EDTA buffer, 37 C. As to conditions: chain copies: 2.
For a further data set, the target named is EcoRI (UniProt P00642 P00642:2-277). Described as above. Particulars: tags: New England BioLabs; chain copies: 2.

B1: SEQ7/SEQ9 duplex lacking EcoRI site (dsDNA)
DNA 1: ATCCGTATGGTGGATAACGTCTTTCA
DNA 2: TGAAAGACGTTATCCACCATACGGAT
On to B1, for which the binding result with EcoRI (Gln 111) and with EcoRI was “no binding” in each case.

(Values after patent US5593867, “Fluorerscence polarization detection of nucleic acid amplication” (Becton, Dickinson and Company).)
